Measurements published in patent publication US20260184782A1 (TWIST BIOSCIENCE, published 2026).
Numbering of substitutions follows the chain as printed.

T1: TIGIT (UniProt Q495A1 22-141, limits assumed)
T1 construct: also called T cell immunoreceptor with Ig and ITIM domains; hTIGIT
T1 sequence (looked up): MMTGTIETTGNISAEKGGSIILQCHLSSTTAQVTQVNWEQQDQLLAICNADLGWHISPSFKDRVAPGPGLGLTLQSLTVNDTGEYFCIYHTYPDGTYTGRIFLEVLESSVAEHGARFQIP

T2: human TIGIT-Fc (human, UniProt Q495A1 22-141, limits assumed)
T2 construct: not shown: Fc; not described
T2 sequence (looked up): T1 sequence (looked up)

B1: TIGIT-30-54 (VHH-V5-His) (VHH)
VHH: EVQLVESGGGLVQAGGSLRLSCAASGFTFRSFGMGWFRQAPGKEREFVASTIWSRGDTYYADSVKGRFTISADNAKNTVYLQMNSLKPEDTAVYYCASSPYGPLYRSTHYYDWGQGTQVTVSS
notes: not shown: V5-His tag
B2: TIGIT-31-06 (VHH-V5-His) (VHH)
VHH: EVQLVESGGGLVQPGGSLRLSCAASGFTFSTSWMGWFRQAPGKERELVASITSGGSTYYADSVKGRFTISADNSKNTAYLQMNSLKPEDTAVYYCAADVWYGSTWRNWGQGTLVTVSS
notes: also called TIGIT-31-6; 31-6; not shown: V5-His tag
B3: TIGIT-31-26 (VHH-V5-His) (VHH)
VHH: B2 VHH with S30D, T31R, S50A
notes: not shown: V5-His tag
B4: TIGIT-31-01 (VHH-V5-His) (VHH)
VHH: B2 VHH with S30D, T31R, L47V
notes: also called TIGIT-31-1; 31-1; not shown: V5-His tag
B5: TIGIT-31-20 (VHH-V5-His) (VHH)
VHH: B2 VHH with T31G, S32N, L47F, S50G, T52L, G54D, S56R, T57E, Y58L
notes: not shown: V5-His tag
B6: TIGIT-31-08 (VHH-V5-His) (VHH)
VHH: B2 VHH with S50A, I51R, T52N, S56N, Y58N
notes: also called TIGIT-31-8; 31-8; not shown: V5-His tag
B7: TIGIT-30-58 (VHH-V5-His) (VHH)
VHH: EVQLVESGGGLVQAGGSLRLSCAASGFAFGDSWMGWFRQAPGKEREWVSGISSGGGRTYYADSVKGRFTISADNAKNTVYLQMNSLKPEDTAVYYCAADVWYGSTWRNWGQGTQVTVSS
notes: not shown: V5-His tag
B8: TIGIT-SC179 (Fc fusion)
VHH: EVQLVESGGGLVQPGGSLRLSCAASGFTFSPSWMGWFRQAPGKEREWVASVLRGGYTWYADSVKGRFTISADNSKNTAYLQMNSLKPEDTAVYYCASEVASGETDYWGQGTLVTVSS
notes: VHH-Fc
B9: TIGIT-SC166 (Fc fusion)
VHH: B8 VHH with S30D, P31R, S97R, V99G, A100S, S101G, G102Y, E103A, T104S
notes: VHH-Fc
B10: TIGIT-SC168 (Fc fusion)
VHH: EVQLVESGGGLVQPGGSLRLSCAASGFTFDRSWMGWFRQAPGKEREWVASVLRGGYAWYADSVKGRFTISADNSKNTAYLQMSSLKPEDTAVYYCAREGSGYASDYWGQGTLVTVSS
notes: VHH-Fc
B11: TIGIT-SC184 (Fc fusion)
VHH: EVQLVESGGGLVQPGGSLRLSCAASGFTFSPSWMGWFRQAPGKEREWVASVLRGGYTWYADSVKGRFTISADNSKNTAYLQMNSLKPEDTAVYYCTTDRGYNWNYDWGQGTLVTVSS
notes: VHH-Fc
B12: TIGIT-SC163 (Fc fusion)
VHH: B10 VHH with A57T, S83N, R97T, E98D, G99K, S100R, Y102P, A103H, S104P
notes: VHH-Fc
B13: TIGIT-SC178 (Fc fusion)
VHH: B8 VHH with F29L
notes: VHH-Fc
B14: TIGIT-SC192 (Fc fusion)
VHH: EVQLVESGGGLVQPGGSLRLSCAASGFTFSVYWMGWFRQAPGKEREFVAAISRSGTLKEYADSVKGRFTISADNSKNTAYLQMNSLKPEDTAVYYCARGSGWPKIHFDYWGQGTLVTVSS
notes: VHH-Fc
B15: TIGIT-SC214 (Fc fusion)
VHH: EVQLVESGGGLVQPGGSLRLSCAASGFTFGDSWMGWFRQAPGKEHEFVAAIWRSGTLKAYADSVKGRFTISADNSKNTAYLQMNSLKPEDTAVYYCTSYDAVAGTRDFWGQGTLVTVSS
notes: VHH-Fc
B16: TIGIT-SC167 (Fc fusion)
VHH: EVQLVESGGGLVQPGGSLRLSCAASGRTFSFMGWFRQAPGKEREWVASVLRGGYTWYADSVKGRFTISADNSKNTAYLQMNSLKPEDTAVYYCAREGSGYASDYWGQGTLVTVSS
notes: VHH-Fc
B17: TIGIT-SC176 (Fc fusion)
VHH: EVQLVESGGGLVQPGGSLRLSCAASGFTFSPSWMGWFRQAPGKEREWVASVLRGGYTWYADSVKGRFTISADNSKNTAYLQMNSLKPEDTAVYYCVHEDSVAAHFDFWGQGTLVTVSS
notes: VHH-Fc
B18: TIGIT-SC177 (Fc fusion)
VHH: B17 VHH with V96A, H97T, E98D, D99R, S100G, V101P, A103M, H104V, D106N, F107L
notes: VHH-Fc
B19: TIGIT-SC182 (Fc fusion)
VHH: EVQLVESGGGLVQPGGSLRLSCAASGFTFSSSSMGWFRQAPGKEREFVAAINWSGGSTSYADSVKGRFTISADNSKNTAYLQMNSPKPEDTAVYYCAKDRSYSFDYWGQGTLVTVSS
notes: VHH-Fc
B20: TIGIT-SC206 (Fc fusion)
VHH: EVQLVESGGGLVQPGGSLRLSCAASGFLFDSYVMGWFRQAPGKEREFVAAIWRSGTLKAYADSVKGRFTISADNSKNTAYLQMNGLKPEDTAVYYCAGVGTDYGDYLFNYWGQGTLVTVSS
notes: VHH-Fc
B21: TIGIT-SC205 (Fc fusion)
VHH: EVQLVESGGGLVQPGGSLRLSCAASGFTFDRSWMGWFRQAPGKEREFVAAIWRSGTLKAYADSVKGRFTISADNGKNTAYLQMNSLKPEDTAVYYCAEGGTTAWGWFVPWGQGTLVTVSS
notes: VHH-Fc
B22: TIGIT-SC190 (Fc fusion)
VHH: EVQLVESGGGLVQPGGSLRLSCAASGFTFDRSWMGWFRQAPGKEREWVASVLRGGYTWYADSVKGRFTISADNSKNTAYLQMNSLKPEDTAVYYCVTDVGAPDYWGQGTLVTVSS
notes: VHH-Fc
B23: TIGIT-SC186 (Fc fusion)
VHH: B11 VHH with F27N, P31G, S32G, W33F, W47Y, A78T
notes: VHH-Fc
B24: TIGIT-SC208 (Fc fusion)
VHH: EVQLVESGGGLVQPGGSLRLSCAASGFLFDSYVMGWFRQAPGKEREFVAAIWRSGTLKAYADSVKGRFTISADNSKNTEYLQMNSLKPEDTAVYYCARDDYGDTRRYFQHWGQGTLVTVSS
notes: VHH-Fc
B25: TIGIT-SC209 (Fc fusion)
VHH: B24 VHH with D30N, V33W, T104Y, R106I
notes: VHH-Fc
B26: TIGIT-SC207 (Fc fusion)
VHH: B24 VHH with L28A, D30S
notes: VHH-Fc
B27: TIGIT-SC169 (Fc fusion)
VHH: EVQLVESGGGLVQPGGSLRLSCAASGFTLNDYAMGWFRQAPGKERELVAWIARYDGSTLYADSVKGRFTISADNSKNTAYLQMNSLKPEDTAVYYCTTELRWELQQPDYWGQGTLVTVSS
notes: VHH-Fc
B28: TIGIT-SC202 (Fc fusion)
VHH: EVQLVESGGGLVQPGGSLRLSCAASGFTFSPSWMGWFRQAPGKEREWVASVLRGGYTWYADSVKGRFTISADNSKNTAYLQMNSLKPEDTAVYYCTTDGGYSGIVGFAWGQGTLVTVSS
notes: VHH-Fc
B29: TIGIT-SC180 (Fc fusion)
VHH: EVQLVESGGGLVQPGGSLRLSCAASGFTLNDYAMGWFRQAPGKERELVAWIARYDGSTLYADSVKGRFTISADNSKNTAYLQMNSLKPEDTAVYYCASEVASGETDYWGQGTLVTVSS
notes: VHH-Fc
B30: TIGIT-SC204 (Fc fusion)
VHH: EVQLVESGGGLVQPGGSLRLSCAASGFLFNSYWMVWFRQAPGKEREFVAAIWRSGTLKAYADSVKGRFTISADNSKNTAYLQMNSLKPEDTAVYYCAADVNYGSTWRNWGQGTLVTVSS
notes: VHH-Fc
B31: TIGIT-SC181 (Fc fusion)
VHH: EVQLVESGGGLVQPGGSLRLSCAASGFTLSSNWMGWFRQAPGKEREFVASVLRGGYTWYADSVKGRFTISADNSKNTAYLQMNSLKPEDTAVYYCARDAYYYGLWGQGTLVTVSS
notes: VHH-Fc
B32: TIGIT-SC161 (Fc fusion)
VHH: EVQLVESGGGLVQPGGSLRLSCAASGFTFSPSWMGWFRQAPGKEREWVASVLRGGYTWYADSVKGRFTISADNSKNTAYLQMNSLKPEDTAVYYCTTDRAIGVRPLFDHWGQGTLVTVSS
notes: VHH-Fc
B33: TIGIT-SC213 (Fc fusion)
VHH: EVQLVESGGGLVQPGGSLRLSCAASGTFQRINAMGWFRQAPGKEREFVAAIWRSGTLKAYADSVKGRFTISADNSKNTAYLQMNSLKPEDTAVYYCARWVGASGDYWIDYWGQGTLVTVSS
notes: VHH-Fc
B34: TIGIT-SC199 (Fc fusion)
VHH: EVQLVESGGGLVQPGGSLRLSCAASGFSSAQYAMGWFRQAPGKERELVASIDSEGRTNYADSVKGRFTISADNSKNTAYLQMNSLKPEDTAVYYCTRDGGFDPWGQGTLVTVSS
notes: VHH-Fc
B35: TIGIT-SC174 (Fc fusion)
VHH: EVQLVESGGGLVQPGGSLRLSCAASGFLFDSYAMGWFRQAPGKEREFVAAISWSGGSTYYADSVKGRFTISADNSKNTAYLQMNSLKPEDTAVYYCTTDALRFLEWPWWGQGTLVTVSS
notes: VHH-Fc

Molecular target: T1, TIGIT
Test: SPR, VHH-V5-His

Row | Kd | RU | koff | kon | Binder
1 | 1090 nM | 130 RU | 0.04 s⁻¹ | 30000 M⁻¹ s⁻¹ | B1
2 | 145 nM | 107 RU | 0.003 s⁻¹ | 20000 M⁻¹ s⁻¹ | B2
3 | 158 nM | 59 RU | 0.003 s⁻¹ | 20000 M⁻¹ s⁻¹ | B3
4 | 169 nM | 122 RU | 0.004 s⁻¹ | 20000 M⁻¹ s⁻¹ | B4
5 | 281 nM | 45 RU | 0.004 s⁻¹ | 10000 M⁻¹ s⁻¹ | B5
6 | 210 nM | 178 RU | 0.009 s⁻¹ | 40000 M⁻¹ s⁻¹ | B6
7 | 1060 nM | 120 RU | 0.01 s⁻¹ | 10000 M⁻¹ s⁻¹ | B7

Molecular target: T2, human TIGIT-Fc
Test: CD155 competition ELISA, single point; also: test concentration or dose not given here
Method: TIGIT/CD155 inhibition of VHH-Fcs were assessed using an ELISA assay (Table 10B). Briefly, human TIGIT-Fc was coated on a plate & then incubated with VHH-Fcs and human CD155-biotin. Bound CD155-biotin was detected using a streptavidin-HRP conjugate visualized with TMB. Strong inhibitors from the single point screen were titrated to determine EC50 (Table 10C).

Row | OD (450 nm) | Binder
8 | 0.591 OD | B8
9 | 0.328 OD | B9
10 | 0.306 OD | B10
11 | 0.534 OD | B11
12 | 0.328 OD | B12
13 | 0.494 OD | B13
14 | 0.487 OD | B14
15 | 0.828 OD | B15
16 | 0.279 OD | B16
17 | 0.57 OD | B17
18 | 0.507 OD | B18
19 | 0.607 OD | B19
20 | 0.517 OD | B20
21 | 0.441 OD | B21
22 | 0.533 OD | B22
23 | 0.576 OD | B23
24 | 0.544 OD | B24
25 | 0.56 OD | B25
26 | 0.504 OD | B26
27 | 0.679 OD | B27
28 | 0.545 OD | B28
29 | 0.639 OD | B29
30 | 0.449 OD | B30
31 | 0.554 OD | B31
32 | 0.451 OD | B32
33 | 0.587 OD | B33
34 | 0.503 OD | B34
35 | 0.532 OD | B35
